The text below walks through data of the supplement of paper PMC10126150.

± gives the standard deviation of the averaged measurements.
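Also: ATP exposure 15 min at 22 °C before imaging.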

In the series the test system is ATP. The series can be described thus: switch fluorescence ratio, 500 uM ATP over buffer (Cy3 cluster intensity, sum of 5 cycles each) (fold (ratio)); higher = stronger signal-on switching upon ATP binding; sequences stand for … in TCGTCGGCAGCGTCAGATGTGTATAAGAGACAGTTTTTTTTTTTTTTTTTTTTTTTTT…TC. Conditions: aptamer strand: ATP DNA aptamer (quencher-CACCTGGGGGAGTATTGCGGAGGAAGG + anchor), 100 nM annealed; ATP concentration: 500 uM. The method in brief: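 Clusters carrying Cy3-labelled switching strands on a modified Illumina MiSeq flow-cell were annealed to 100 nM quencher-labelled ATP aptamer and imaged in selection buffer. They were imaged again after 15 min with 500 uM ATP at 22 °C, over five buffer/ATP cycles with NaOH stripping and re-annealing in between. For each cluster, the fluorescence ratio is the summed Cy3 intensity of the target cycles divided by that of the buffer cycles, averaged per switch-domain sequence. Clusters outside 100-1000 RFU were left out.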
As for GCCCTGATGC, the switch fluorescence ratio worked out at 1.01 ± 0.051.
As for AAAAGCGTAG, the figure is 1.01 ± 0.015; as for GGTGAGATGG, 1 ± 0.069.
For the sequence AGACTGCATT, the switch fluorescence ratio stood at 1.06 ± 0.03.
The result for CGGGAGAGAG reads 1.03 ± 0.014; that for CGGCCTTAGA, 0.985 ± 0.029; that for AGGTCGGGGG, 0.988 ± 0.029.
As for CGTGAAATCG, the figure is 1.02 ± 0.019; as for GTCAGAGAGT, 1.02 ± 0.013.
The result for GGACTTATGG reads 0.9851 ± 0.0091; that for TCAGGGGCGA, 1.041 ± 0.0078; that for GATGTGCGTG, 0.9956 ± 0.0091.
On to TTTTAAAGAG, for which the switch fluorescence ratio came to 0.97 ± 0.024.
As for GCAATTTCGC, the figure is 1.42 ± 0.58; as for GCTGTAGAAG, 0.9951 ± 0.0056; as for GCGAAACAGG, 1.11 ± 0.06.
As for ATAAGGGTCC, the figure is 1.04 ± 0.066; as for CGGCGTTCCG, 1 ± 0.055.
As for ATGTTATTA, the figure is 0.975 ± 0.021; as for GGGGGTATCC, 1.03 ± 0.054.
Turning to TTCTGTGTTT, the switch fluorescence ratio was determined as 1.01 ± 0.037.
The result for TTCGTGTTCT reads 1 ± 0.03; that for TATCCATGGA, 1.01 ± 0.026.
The result for CGGGTGACGA reads 1.03 ± 0.04.
For TTAGACGAGC, the switch fluorescence ratio amounted to 0.986 ± 0.031.
The result for CGATGCGGTG reads 1.05 ± 0.033; that for ATTATATGAC, 1.06 ± 0.05; that for AAATTCGGGG, 0.959 ± 0.037.
For the sequence TATAGGGGTT, the switch fluorescence ratio was found to be 1.02 ± 0.061.
TGGGTTGGCG: the switch fluorescence ratio worked out at 1.04 ± 0.028.
The result for TCGGCGGGCG reads 0.986 ± 0.043; that for TGATTGTTGG, 1.01 ± 0.012; that for CTGGTGGGAG, 0.9857 ± 0.0067.
As for CGGGGATTCG, the figure is 0.996 ± 0.026.
The result for CAATTACGCA reads 1.186 ± 0.00065.
For TCGGAAAAAT, the switch fluorescence ratio is 0.966 ± 0.0099.
In the case of CAGTCATATT, the switch fluorescence ratio is 1.02 ± 0.034.
As for TATAATTGGG, the figure is 0.9921 ± 0.0015; as for GCGGATGAGA, 1.056 ± 0.0096; as for GGTTTCGCTT, 1.03 ± 0.046.
With GAGGGGCATG, the switch fluorescence ratio is 1.01 ± 0.032.
Consider AGGTACGACG, for which the switch fluorescence ratio came to 0.99 ± 0.013.
The result for TTTACCCTAT reads 1.06 ± 0.015.
On to ATTTGCATGC, for which the switch fluorescence ratio came out at 1 ± 0.012.
As for TTCGTGGTTG, the figure is 0.967 ± 0.034.
As for TGAGGTGGGG, the figure is 0.9887 ± 0.0027.
As for GGCTTCTTGA, the figure is 0.966 ± 0.017.
With AGATGGGTGT, the switch fluorescence ratio stood at 1.04 ± 0.041.
As for CTTTATTTAG, the figure is 0.997 ± 0.023.
For the sequence TATTGGCTTC, the switch fluorescence ratio was 0.992 ± 0.018.
On to GGAAATCACA, for which the switch fluorescence ratio came to 1.01 ± 0.029.
The result for CGGGGGAGCG reads 1 ± 0.045.
The result for GGGGTAGAAT reads 1.03 ± 0.061; that for TAAGCCATTA, 1.01 ± 0.0038; that for AGGTGTATTG, 1.03 ± 0.017.
As for CTTAAACAGC, the figure is 1.02 ± 0.063; as for GGGTAGATGC, 1.01 ± 0.052.
Regarding TTTATCCTAG, the switch fluorescence ratio stood at 0.976 ± 0.003.
As for TGTTTTTTAA, the figure is 0.99 ± 0.044; as for GTTAGCAGGG, 1.01 ± 0.044.
Take CGCTTGCCAG: the switch fluorescence ratio amounted to 0.972 ± 0.027.
Take CGCGGGTGGT: the switch fluorescence ratio stood at 1.02 ± 0.012.
As for ATATTTTTGG, the figure is 0.993 ± 0.011.
As for GGTTGACTTA, the figure is 1.03 ± 0.011.
As for AATGGGCCGG, the figure is 1.013 ± 0.0076; as for ATGAGGGCGG, 0.98 ± 0.021; as for ATAATGTGAA, 1.03 ± 0.017.
Take TTCTGGTATA: the switch fluorescence ratio was determined as 1.02 ± 0.024.
As for TAAAAGCTGA, the figure is 0.989 ± 0.042; as for TTCCAAGATC, 1.18 ± 0.12; as for AGCTTCATTC, 1.06 ± 0.057.
Take CTTGTAATTT: the switch fluorescence ratio stood at 1.02 ± 0.035.
For GATAGTTGGG, the switch fluorescence ratio was determined as 0.988 ± 0.02.
Consider GCGACAAGAG, for which the switch fluorescence ratio stood at 1.03 ± 0.067.
The result for GCATCAGGCG reads 1.01 ± 0.02; that for ATTTTTTTTG, 0.987 ± 0.023.
In the case of GCTTTTGGGG, the switch fluorescence ratio is 1.03 ± 0.087.
As for CCTTATGCCA, the figure is 1.09 ± 0.061; as for TTGTTCTCGC, 1.02 ± 0.048; as for TGCTTTTGAT, 1 ± 0.048.
Take TAAGGGATGT: the switch fluorescence ratio turned out to be 0.995 ± 0.049.
The result for TTTAGAGAGC reads 0.987 ± 0.051; that for CGGATTCGAT, 1.01 ± 0.011; that for CGGATTTGGA, 0.976 ± 0.051.
As for TTAAGCGGCG, the figure is 0.992 ± 0.016.
As for ATCGTTTTTA, the figure is 1.001 ± 0.004; as for CTTGGGGCTT, 0.985 ± 0.014.
For ATCGTTATTA, the switch fluorescence ratio stood at 1.02 ± 0.018.
The result for TTTCGGTCGT reads 1.03 ± 0.074.
Regarding TCAATGAATA, the switch fluorescence ratio was 0.986 ± 0.02.
The result for CATCCTTTAA reads 1.007 ± 0.0082; that for GCCTTTTCTG, 0.962 ± 0.031; that for GGGAACCGGG, 1.2 ± 0.33.
The result for CTAGATTCGT reads 0.996 ± 0.017; that for TCCATTTATC, 0.982 ± 0.04; that for GGGGAATTTT, 1.01 ± 0.037.
As for ATGGGGCCTG, the figure is 0.9828 ± 0.0078.
Consider ATCGTGCACA, for which the switch fluorescence ratio was determined as 0.973 ± 0.036.
The result for TCTTTACCGA reads 1.02 ± 0.036; that for CATGAGATAC, 1.16 ± 0.022.
The result for ATTGTTACAG reads 1.01 ± 0.016; that for AGGGGTGTGT, 1.01 ± 0.019.
As for GTATGTTGGG, the figure is 1.08 ± 0.045; as for GGGTAGTCAG, 0.995 ± 0.017.
Turning to AGAGTGCGTA, the switch fluorescence ratio was determined as 0.989 ± 0.023.
Take AGTAAGTATG: the switch fluorescence ratio was found to be 1.04 ± 0.054.
As for ATATGCGTAT, the figure is 1.01 ± 0.02; as for TTTTGGTACC, 1.02 ± 0.015.
The result for AGTGACGTAC reads 1.77 ± 0.075; that for GACGGAAGTT, 1.004 ± 0.0017.
The result for ACAGGAGAAA reads 1.01 ± 0.019; that for AAATTGCGAG, 1.005 ± 0.0033.
Take GTAAAGAAAA: the switch fluorescence ratio is 1.05 ± 0.081.
Take CAAGGGGTAA: the switch fluorescence ratio was found to be 0.9524 ± 0.0052.
As for TGTGTGTTTA, the figure is 1.01 ± 0.012; as for AGTTCTGGTT, 0.965 ± 0.011; as for CATAGGCTAC, 1.6 ± 0.031.
The result for TGCATTTTTT reads 0.981 ± 0.034; that for TATGATGGGA, 0.9911 ± 0.0093.
As for TAGGGGCAGT, the figure is 1.09 ± 0.14.
